Patent US6747136

Target: recombinant conformational HCV E2 antigen (HCV genotype 1a) (hepatitis C virus, HCV1 (genotype 1a)) (UniProt P26664)
Test: NOB assay: control Fab pre-mixed with E2 1a, E2 binding to MOLT-4 cells by flow cytometry; 50% reduction titer, Exp. I

recombinant conformational HCV E2 antigen (HCV genotype 1a) (hepatitis C virus, HCV1 (genotype 1a)), sequence (P26664 383-715): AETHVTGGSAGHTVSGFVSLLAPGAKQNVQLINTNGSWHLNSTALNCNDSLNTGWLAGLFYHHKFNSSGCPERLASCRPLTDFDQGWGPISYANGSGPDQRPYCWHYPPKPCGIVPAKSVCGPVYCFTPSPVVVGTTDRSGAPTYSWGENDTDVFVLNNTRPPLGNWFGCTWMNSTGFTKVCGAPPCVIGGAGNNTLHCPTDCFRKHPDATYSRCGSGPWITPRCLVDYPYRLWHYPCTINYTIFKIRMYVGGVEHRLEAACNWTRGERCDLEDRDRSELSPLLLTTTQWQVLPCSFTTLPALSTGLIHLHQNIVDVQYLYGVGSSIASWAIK

negative control Fab clone b12 directed to HIV-1 envelope glycoprotein gp120
IC50: > 10 µg/mL
